Measured values reported in paper PMC12906813, “The Transcription Factors NFYA1 and GBF3 Jointly Regulate CHS2 to Promote Tangeretin Accumulation and Cold Tolerance in Citrus”.

Experiments:
CiGBF3 = target: T1, CiGBF3 (Citrus ichangensis (Ichang papeda), UniProt V4U7K8 1-421); assay: EMSA; Chemiluminescent EMSA Kit (Beyotime GS009); buffer, salt, pH and temperature not stated; details: protein: recombinant; tags: His (pHMGWA vector); chain copies: 2; label: biotin; blunt
T1 sequence: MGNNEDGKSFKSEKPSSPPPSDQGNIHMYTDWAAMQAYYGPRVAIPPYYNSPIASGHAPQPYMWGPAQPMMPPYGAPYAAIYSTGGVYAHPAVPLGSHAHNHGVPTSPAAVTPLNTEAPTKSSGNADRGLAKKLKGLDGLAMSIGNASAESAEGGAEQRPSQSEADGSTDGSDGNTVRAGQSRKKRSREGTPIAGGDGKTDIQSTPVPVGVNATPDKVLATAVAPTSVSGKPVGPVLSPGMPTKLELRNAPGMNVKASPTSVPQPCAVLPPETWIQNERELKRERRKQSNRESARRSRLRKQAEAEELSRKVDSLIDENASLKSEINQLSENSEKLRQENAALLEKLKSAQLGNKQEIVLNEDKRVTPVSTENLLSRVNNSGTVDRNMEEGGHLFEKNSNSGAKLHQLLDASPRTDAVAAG

CiNFYA1 = CiNFYA1 (Citrus ichangensis (Ichang papeda), UniProt A0A067ER94 1-365); assay: as above; details: protein: recombinant; tags: His (pHMGWA vector); label: biotin; blunt
CiNFYA1, sequence (A0A067ER94 entry or part of it): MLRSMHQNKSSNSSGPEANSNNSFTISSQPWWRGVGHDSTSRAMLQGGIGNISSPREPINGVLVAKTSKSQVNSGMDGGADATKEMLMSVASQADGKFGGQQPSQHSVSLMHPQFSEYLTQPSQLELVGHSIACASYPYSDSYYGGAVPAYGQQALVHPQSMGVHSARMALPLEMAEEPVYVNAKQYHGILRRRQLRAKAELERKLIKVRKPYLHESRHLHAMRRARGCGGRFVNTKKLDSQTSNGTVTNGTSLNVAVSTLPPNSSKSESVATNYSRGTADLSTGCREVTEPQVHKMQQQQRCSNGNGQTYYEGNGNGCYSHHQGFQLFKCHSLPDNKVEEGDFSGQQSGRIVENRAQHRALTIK

B1: CHS2-CACGTG probe (Probe 2) (dsDNA)
DNA 1: GCAGCCTAACACTATCCACGTGGTCAGCATCTGCCCGT
DNA 2: ACGGGCAGATGCTGACCACGTGGATAGTGTTAGGCTGC
- binding result (CiGBF3): binds

B2: CHS2-CCAAT probe (Probe 1) (dsDNA)
DNA 1: AAAGATCCATTTAATATGTTCCAATTACCGCATTACAAGTACTAAA
DNA 2: TTTAGTACTTGTAATGCGGTAATTGGAACATATTAAATGGATCTTT
- binding result (CiNFYA1): binds

B3: CHS2-mCCAAT probe (mProbe1) (dsDNA)
DNA 1: AAAGATCCATTTAATATGTAAAAAATACCGCATTACAAGTACTAAA
DNA 2: TTTAGTACTTGTAATGCGGTATTTTTTACATATTAAATGGATCTTT
- binding result (CiNFYA1): no binding

B4: CHS2-mCACGTG probe (mProbe2) (dsDNA)
DNA 1: GCAGCCTAACACTATCTTTTTTGTCAGCATCTGCCCGT
DNA 2: ACGGGCAGATGCTGACAAAAAAGATAGTGTTAGGCTGC
- binding result (CiGBF3): no binding
